The values below come from paper doi:10.1101/2025.10.03.680245 (bioRxiv, 2025).

In data set [1] the target is GFP-tagged Cdc11-capped recombinant septin octamers (budding yeast (S. cerevisiae), UniProt P32458;P32468;P32457;P25342). Description: fluorescence microscopy of purified proteins in solution.
Data set [2] concerns the molecule itself. In words: negative-stain transmission electron microscopy.

B1: MBP-Bud4ΔN-HALO (domain or fragment)
chain: MKPSDYISIWHIQEEEIKSNSPESIANSQFSQQSSITTASTVDSKKDNGSTSFKFKPRIVSRSRIYNPKSRVSSLNYYDNEDYILSNSEWNALDPMRRNTLISKRIQDNIRTQKGHAPLIRPSIMKLNGEDSGFQNHFLEVEQPQEHENIPLSTHLSEQDITTNVGLDEQKLPTNTQDEAEISIREIESAGDITFNRGDLLSLSFDEELGQDFANFLDALDHDSTSFNHGPDDSSSFQRDSSKKSFNSLWESSYELKPPPSIRKQPIAPDVLQKLLESDTKDDADLEKIREERITEPRTGLGIGMLKTPVKDVSIALAASIKGYEASFSDTDSRPEGMNNSDAITLNMFDDFEEDKMTPSTPVRSISPIKRHVSSPFKVVKAGNKQENNEINIKAEEEIEPMTQQETDGLKQDIPPLLAQTKDNVEAKEETITQLEEPQDVEQEFPDMGTLYLSIKAISTLALYGTKSHRATYAIVFDNGENVVQTPWESLPYDGNIRINKEFELPIDFKGKAETSSASSERDSYKKCVITLKCKYEKPRHELVEIVDKVPVGKSFFGKTKYKFEKKYVQKKPKQDEWDYLFAQDGSFARCEIEINEEFLKNVAFNTSHMHYNMINKWSRIADKIHGSKRLYELPRKAPHKVASLDVEACFLERTSAFEQFPKQFSLVNKIVSKYKLQQNIYKEGYLLQDGGDLKGKIENRFFKLHGSQLSGYHEISRKAKIDINLLKVTKVLRNEDIQADNGGQRNFTDWVLFNECFQLVFDDGERITFNAECSNEEKSDWYNKLQEVVELNVFHQPWVKKYCEKLAEEEKTRTTGHNLKQDFN
modifications: HaloTag Alexa-Fluor 660 fluorescent ligand on the HALO tag
On to B1, for which the binding result in data set [1] is given as “binds”.

B2: Recombinant Cdc11-capped septin octamers (complex)
chain 1: MSGIIDASSALRKRKHLKRGITFTVMIVGQSGSGRSTFINTLCGQQVVDTSTTILLPTDTSTEIDLQLREETVELEDDEGVKIQLNIIDTPGFGDSLDNSPSFEIISDYIRHQYDEILLEESRVRRNPRFKDGRVHCCLYLINPTGHGLKEIDVEFIRQLGSLVNIIPVISKSDSLTRDELKLNKKLIMEDIDRWNLPIYNFPFDEDEISDEDYETNMYLRTLLPFAIIGSNEVYEMGGDVGTIRGRKYPWGILDVEDSSISDFVILRNALLISHLHDLKNYTHEILYERYRTEALSGESVAAESIRPNLTKLNGSSSSSTTTRRNTNPFKQSNNINNDVLNPASDMHGQSTGENNETYMTREEQIRLEEERLKAFEERVQQELLLKRQELLQREKELREIEARLEKEAKIKQEE
chain 2: MSAATATAAPVPPPVGISNLPNQRYKIVNEEGGTFTVMLCGESGLGKTTFINTLFQTVLKRADGQQHRQEPIRKTVEIDITRALLEEKHFELRVNVIDTPGFGDNVNNNKAWQPLVDFIDDQHDSYMRQEQQPYRTKKFDLRVHAVLYFIRPTGHGLKPIDIETMKRLSTRANLIPVIAKADTLTAQELQQFKSRIRQVIEAQEIRIFTPPLDADSKEDAKSGSNPDSAAVEHARQLIEAMPFAIVGSEKKFDNGQGTQVVARKYPWGLVEIENDSHCDFRKLRALLLRTYLLDLISTTQEMHYETYRRLRLEGHENTGEGNEDFTLPAIAPARKLSHNPRYKEEENALKKYFTDQVKAEEQRFRQWEQNIVNERIRLNGDLEEIQGKVKKLEEQVKSLQVKKSHLK
chain 3: MSLKEEQVSIKQDPEQEERQHDQFNDVQIKQESQDHDGVDSQYTNGTQNDDSERFEAAESDVKVEPGLGMGITSSQSEKGQVLPDQPEIKFIRRQINGYVGFANLPKQWHRRSIKNGFSFNLLCVGPDGIGKTTLMKTLFNNDDIEANLVKDYEEELANDQEEEEGQGEGHENQSQEQRHKVKIKSYESVIEENGVKLNLNVIDTEGFGDFLNNDQKSWDPIIKEIDSRFDQYLDAENKINRHSINDKRIHACLYFIEPTGHYLKPLDLKFMQSVYEKCNLIPVIAKSDILTDEEILSFKKTIMNQLIQSNIELFKPPIYSNDDAENSHLSERLFSSLPYAVIGSNDIVENYSGNQVRGRSYPWGVIEVDNDNHSDFNLLKNLLIKQFMEELKERTSKILYENYRSSKLAKLGIKQDNSVFKEFDPISKQQEEKTLHEAKLAKLEIEMKTVFQQKVSEKEKKLQKSETELFARHKEMKEKLTKQLKALEDKKKQLELSINSASPNVNHSPVPTKKKGFLR
chain 4: MDPLSSVQPASYVGFDTITNQIEHRLLKKGFQFNIMVVGQSGLGKSTLINTLFASHLIDSATGDDISALPVTKTTEMKISTHTLVEDRVRLNINVIDTPGFGDFIDNSKAWEPIVKYIKEQHSQYLRKELTAQRERFITDTRVHAILYFLQPNGKELSRLDVEALKRLTEIANVIPVIGKSDTLTLDERTEFRELIQNEFEKYNFKIYPYDSEELTDEELELNRSVRSIIPFAVVGSENEIEINGETFRGRKTRWSAINVEDINQCDFVYLREFLIRTHLQDLIETTSYIHYEGFRARQLIALKENANSRSSAHMSSNAIQR
For the molecule B2, in data set [2], the binding result is given as “binds”.
